Experimental data published in PMC5331437, “Synthesis of Mono- and Di-Glucosides of Zearalenone and α-/β-Zearalenol by Recombinant Barley Glucosyltransferase HvUGT14077” (Toxins, 2017).

How the values were obtained:
HvUGT14077 [1] = target: T1, HvUGT14077 (Hordeum vulgare, UniProt D3WYW3); test: LC-MS/MS, steady state, sum of […]- and 16-glucosides, Haldane fit; set-up: gene UGT; conditions: read-out: Kinetic Constant / Km; 10 mM UDP-glucose; 100 mM Tris/Cl pH 7.5, 37 °C; apparent Km, substrate inhibition model
T1 sequence (D3WYW3 1-490): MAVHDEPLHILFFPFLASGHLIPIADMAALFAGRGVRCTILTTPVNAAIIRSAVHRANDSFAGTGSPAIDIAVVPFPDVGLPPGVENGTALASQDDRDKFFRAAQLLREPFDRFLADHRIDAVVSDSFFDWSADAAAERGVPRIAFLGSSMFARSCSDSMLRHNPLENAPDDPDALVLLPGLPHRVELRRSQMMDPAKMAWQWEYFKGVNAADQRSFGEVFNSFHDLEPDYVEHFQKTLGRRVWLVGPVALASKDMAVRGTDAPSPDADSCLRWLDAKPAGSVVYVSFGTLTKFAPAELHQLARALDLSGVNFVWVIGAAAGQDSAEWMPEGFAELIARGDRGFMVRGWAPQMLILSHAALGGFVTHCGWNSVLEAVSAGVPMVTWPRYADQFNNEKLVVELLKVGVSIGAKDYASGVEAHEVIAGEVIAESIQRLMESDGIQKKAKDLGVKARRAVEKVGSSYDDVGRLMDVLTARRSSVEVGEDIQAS

HvUGT14077 [2] = target: T1, HvUGT14077; test: LC-MS/MS of glucoside formation; type: biochemical; set-up: gene UGT; nHis6-MalE-TEV-HvUGT14077 fusion (tags kept), E. coli BL21 (DE3), IMAC, predicted 97 kDa incl. tags
purified protein [3] = substrate: O=c1ccn([C@@H]2O[C@H](CO[P@@](=O)(O)O[P@@](=O)(O)O[C@H]3O[C@H](CO)[C@@H](O)[C@H](O)[C@H]3O)[C@@H](O)[C@H]2O)c(=O)[nH]1; test: purified protein; conditions: 25 µM zearalenone, 100 mM Tris/Cl pH 7.5, 37 °C
purified protein [4] = substrate: C[C@H]1CCC[C@H](O)CCC/C=C/c2cc(O)cc(O)c2C(=O)O1; test: purified protein; conditions: 10 mM UDP-glucose, 100 mM Tris/Cl pH 7.5, 37 °C, apparent Km, substrate inhibition model
purified protein [5] = substrate: C[C@H]1CCC[C@@H](O)CCC/C=C/c2cc(O)cc(O)c2C(=O)O1; test: purified protein; conditions: 10 mM UDP-glucose, 100 mM Tris/Cl pH 7.5, 37 °C, apparent Km, substrate inhibition model

Question: For C[C@H]1CCCC(=O)CCC/C=C/c2cc(O)cc(O)c2C(=O)O1 [ZEN, Zearalenone], which Km (HvUGT14077 [1]) is on record?
Answer: The Km was 3 ± 1 µM.

Question: O=c1ccn([C@@H]2O[C@H](COP(=O)(O)OP(=O)(O)O)[C@@H](O)[C@H]2O)c(=O)[nH]1 [UDP] was tested. Which IC50 (HvUGT14077 [2]) did it give?
Answer: The IC50 was 340 µM.

B1: HvUGT14077 (Hordeum vulgare subsp. vulgare) (protein)
chain: MAVHDEPLHILFFPFLASGHLIPIADMAALFAGRGVRCTILTTPVNAAIIRSAVHRANDSFAGTGSPAIDIAVVPFPDVGLPPGVENGTALASQDDRDKFFRAAQLLREPFDRFLADHRIDAVVSDSFFDWSADAAAERGVPRIAFLGSSMFARSCSDSMLRHNPLENAPDDPDALVLLPGLPHRVELRRSQMMDPAKMAWQWEYFKGVNAADQRSFGEVFNSFHDLEPDYVEHFQKTLGRRVWLVGPVALASKDMAVRGTDAPSPDADSCLRWLDAKPAGSVVYVSFGTLTKFAPAELHQLARALDLSGVNFVWVIGAAAGQDSAEWMPEGFAELIARGDRGFMVRGWAPQMLILSHAALGGFVTHCGWNSVLEAVSAGVPMVTWPRYADQFNNEKLVVELLKVGVSIGAKDYASGVEAHEVIAGEVIAESIQRLMESDGIQKKAKDLGVKARRAVEKVGSSYDDVGRLMDVLTARRSSVEVGEDIQAS
Question: Which Km (purified protein [3]) does the source give for B1 here?
Answer: The Km was 78 ± 9 µM.

Question: What about the Km (purified protein [4]) of the same molecule?
Answer: Its Km is 13 ± 2 µM.

Question: And the Vmax (purified protein [4])?
Answer: The Vmax was 0.32 µmol/min/mg.

Question: What about the kcat (purified protein [4]) of the same molecule?
Answer: Its kcat is 0.52 ± 0.05 s⁻¹.

Question: What about the kcat/Km (purified protein [4]) of the same molecule?
Answer: The kcat/Km was 40000 M⁻¹ s⁻¹.

Question: What about the Km (purified protein [5]) of the same molecule?
Answer: The Km was 27 ± 3 µM.

Question: What about the Vmax (purified protein [5]) of the same molecule?
Answer: The Vmax was 1.2 µmol/min/mg.

Question: What about the kcat (purified protein [5]) of the same molecule?
Answer: The kcat was 2 ± 0.1 s⁻¹.

Question: What about the kcat/Km (purified protein [5]) of the same molecule?
Answer: The kcat/Km was 74000 M⁻¹ s⁻¹.
